Assay [1] addresses T1, CD22 (UniProt P20273 20-687, limits assumed).
T1 construct: also called B cell antigen CD22
Put plainly: not stated (overview statement); overview statement, assay not stated.

Assay [2] concerns the target T2, CD22 ECD-Fc fusion protein (UniProt P20273 20-687, limits assumed).
T2 construct: extracellular domain; also called CD22-Fc; not shown: Fc part
Put plainly: SPR, BIAcore X100; CD22 ECD-Fc amine-coupled to the chip, scFv as analyte (0.32-200 nM per paragraph 213), 1:1 fit; legend paragraph 27 says this kd is below what the instrument can measure (1.0E-5 1/s). On the procedure:
(§1) FIGS. 13A-13F: (FIG. 13A) BIAcore analysis was used to evaluate association and dissociation curves of various scFvs. […] (FIGS. 13C-13F) Mice were injected with CD22^lo or Nalm6 leukemia on Day 0. […] Bone marrow cells were stained for flow cytometry and analyzed on Fortessa flow machine. Statistics were calculated using unpaired t-test (** p<0.0021).
(§2) Purified CD22 ECD-Fc fusion protein was diluted in 10 mM acetic acid buffer, pH 5.0, immobilized on a CMS biosensor chip for 1400 RU using an amine coupling kit. The running buffer was HBS-EP (10 mM HEPES, pH 7.4, 150 mM NaCl, 3 mM EDTA, 0.05% surfactant P20). The scFvs diluted in running buffer were allowed to flow through the cells at concentrations 0.32, 1.6, 8, 40 and 200 nM. After a 10-minute of dissociation, the chip was regenerated with 10 mM acetic acid, pH 4.0, 0.5 M NaCl. The data were fitted with 1:1 binding model and the dissociation rate constant was estimated with the BIAevaluation software.

Assay [3] has as its target T2, CD22 ECD-Fc fusion protein. As to the kind of experiment: SPR, BIAcore X100; CD22 ECD-Fc amine-coupled to the chip, scFv as analyte (0.32-200 nM per paragraph 213), 1:1 fit. On the procedure: as §1, §2
Assay [4] deals with T2, CD22 ECD-Fc fusion protein. Put plainly: SPR, BIAcore X100, CD22 ECD-Fc immobilized, scFv in flow. The method, then:
as §1, §2

Assay [5] has as its target T2, CD22 ECD-Fc fusion protein. Put plainly: SPR, BIAcore X100; CD22 ECD-Fc amine-coupled to the chip, scFv as analyte (0.32-200 nM per paragraph 213), 1:1 fit; calculated from a kd that legend paragraph 27 says is below the instrument's limit. On the procedure: as §1, §2
Assay [6] deals with T2, CD22 ECD-Fc fusion protein. As to the kind of experiment: SPR, BIAcore X100, CD22 ECD-Fc immobilized, scFv in flow, 1:1 model. The fitted value is below the instrument's limit.; fitted kd, below the instrument's limit. On the procedure: as §1, §2
Assay [7] concerns the target T2, CD22 ECD-Fc fusion protein. Put plainly: SPR, BIAcore X100, CD22 ECD-Fc immobilized, scFv in flow. The association rate appears only as the divisor in the KD calculation, and its unit is not printed. On the procedure:
as §1, §2

The values that follow come from US20210324074A1 (US Dept. of Health and Human Services, published 2021).

B1: affinity matured human monoclonal antibody m971-L7 (antibody, V domains shown)
VH: QVQLQQSGPGMVKPSQTLSLTCAISGDSVSSNSVAWNWIRQSPSRGLEWLGRTYYRSTWYNDYAVSMKSRITINPDTNKNQFSLQLNSVTPEDTAVYYCAREVTGDLEDAFDIWGQGTMVTVSS
VL: DIQMIQSPSSLSASVGDRVTITCRASQTIWSYLNWYRQRPGEAPNLLIYAASSLQSGVPSRFSGRGSGTDFTLTISSLQAEDFATYYCQQSYSIPQTFGQGTKLEIK
notes: Named as 'antibody' in the overview
As for B1, in assay [1], the Kd was < 50 pM.

B2: m971-L7 scFv (scFv)
scFv: QVQLQQSGPGMVKPSQTLSLTCAISGDSVSSNSVAWNWIRQSPSRGLEWLGRTYYRSTWYNDYAVSMKSRITINPDTNKNQFSLQLNSVTPEDTAVYYCAREVTGDLEDAFDIWGQGTMVTVSSGGGGSGGGGSGGGGSDIQMIQSPSSLSASVGDRVTITCRASQTIWSYLNWYRQRPGEAPNLLIYAASSLQSGVPSRFSGRGSGTDFTLTISSLQAEDFATYYCQQSYSIPQTFGQGTKLEIK
notes: Soluble scFv run over immobilized CD22 ECD-Fc on a BIAcore X100; also called matured variant L7
Regarding B2, the values for the koff in assay [2] and in assay [6] were 1.16e-06 s⁻¹ and < 1e-05 s⁻¹, respectively. Further, the on-rate (kon) in assay [3] is 563000 M⁻¹ s⁻¹; in assay [7], 560000 M⁻¹ s⁻¹. For the same molecule, the Kd in assay [4] is < 18 pM; in assay [5], 2.06 pM. In assay [4], the “fold higher affinity than original scFv m971” value was > 1000 fold.
